Experiment [1] concerns the target T1, recombinant human NGF protein (human, UniProt P01138 122-241).
T1 construct: Bought protein; also called nerve growth factor; biotin-labeled human NGF
Briefly: ELISA, human NGF coated. The protocol: (§1) The binding capacity of anti-NGF antibodies was investigated by using human NGF as an antigen (Beijing Yiqiao Shenzhou Technology Co., Ltd., 11050-HNAC). Each well of a 96-well microtiter plate was coated with 50 ng of human NGF, after washing and blocking, and then added with serially diluted antibodies, and incubated at room temperature for 1 hour. After washing three times, HRP-conjugated goat anti-mouse antibody (Biolegend, 405306) was added and incubated at room temperature for 1 hour. After washing three times, tetramethylbenzidine (TMB, Biolegend, 421101) was added for color development. 1M HC1 was used to terminate the color development, and the absorbance values were read at 450 nm with a microplate reader.
Background: In an ELISA, binding on a coated surface is turned into a signal by an enzyme label.

For experiment [2], the target named is T1, recombinant human NGF protein. Briefly: BLI (ForteBio Octet Red96), biotin-NGF on SA sensor, antibody in solution. From the text: The affinities of the antibodies were detected with Biomolecular Interaction Detection Platform (ForteBio Octet Red96 (PALL)). Biotin-labeled human NGF was immobilized by using SA (Streptavidin) Biosensor (Fortebio, 18-5021), and then conjugated with gradient concentrations of anti-NGF antibodies.
(Biolayer interferometry detects binding as a change in optical thickness at a sensor tip.)

Experiment [3] has the same target. The experiment in a line: cell-based or functional assay.
The target is the same in experiment [4]. The experiment in a line: cell-based or functional assay. The source holds these as a separate data set.
Experiment [5] shares this target. The experiment in a line: blocking ELISA, human NGF coated, antibody first, then TrkA-Fc. The protocol: If using the coated ligand NGF method for detection, each well of a 96-well microtiter plate was coated with 50 ng of human NGF and washed three times. […] 100 μL of 1 μg/mL TrkA fused to human Fc was added to each well, incubated for 1 hour at room temperature, and washed three times. HRP-conjugated donkey anti-human IgG antibody (Biolegend, 410902) was added and reacted for 1-hour at room temperature. After washing, add TMB to develop color, and read after the termination of development.

The target in experiment [6] is T2, human NT-4 (human, UniProt P34130 81-210).
T2 construct: Bought protein; also called Neurotrophic factor-4
T2 sequence (looked up): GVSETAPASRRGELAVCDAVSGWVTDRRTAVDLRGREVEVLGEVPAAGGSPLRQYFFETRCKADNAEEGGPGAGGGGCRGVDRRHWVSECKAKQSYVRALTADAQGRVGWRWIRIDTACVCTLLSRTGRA
The experiment in a line: ELISA, plate coated with human NT-4 (50 ng per well), OD450. The protocol: as §1
(§2) Each well of a 96-well microtiter plate was coated with 50 ng of human NGF (Beijing Yiqiao Shenzhou Technology Co., Ltd., 11050-HNAC), human BDNF (Beijing Yiqiao Shenzhou Technology Co., Ltd., 50240-MNAS), human NT-3 (Beijing Yiqiao Shenzhou Technology Co., Ltd., 10286-HNAE), or human NT-4 (Alomone, N-270). The bindings of the murine anti-NGF antibodies to human NGF and three homo-family proteins were detected according to the method described in Example 2.

Experiment [7] has as its target T1, recombinant human NGF protein. The experiment in a line: cell-based or functional assay. This is another data set of the same source.
Experiment [8] deals with T3, human NT-3 (human, UniProt P20783 139-257).
T3 construct: Bought protein; also called Neurotrophic factor-3
T3 sequence (looked up): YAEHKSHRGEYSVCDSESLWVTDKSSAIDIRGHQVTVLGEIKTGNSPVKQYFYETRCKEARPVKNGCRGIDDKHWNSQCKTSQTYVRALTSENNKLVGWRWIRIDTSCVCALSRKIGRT
The experiment in a line: ELISA, plate coated with human NT-3 (50 ng per well), OD450. Here is the method:
as §1, §2

The target of experiment [9] is T4, human BDNF (human, UniProt P23560 129-247).
T4 construct: Bought protein; also called Brain-Derived Neurotrophic Factor
T4 sequence (looked up): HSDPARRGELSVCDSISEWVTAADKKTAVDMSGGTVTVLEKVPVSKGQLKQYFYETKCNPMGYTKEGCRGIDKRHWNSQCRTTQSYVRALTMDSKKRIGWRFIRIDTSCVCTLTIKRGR
The experiment in a line: ELISA, plate coated with human BDNF (50 ng per well), OD450. The protocol: as §1, §2

Experiment [10] concerns the target T1, recombinant human NGF protein. Briefly: blocking ELISA, TrkA-Fc coated, antibody premixed with biotin-labeled human NGF. The protocol:
If the method of coated receptor TrkA is used for detection, 50 ng of NGF receptor TrkA protein (fused to human Fc) was coated in each well of a 96-well microtiter plate, washed three times, and then blocked with 3% BSA for 1 hour. […] 100 μl was taken and mixed with an equal volume of 1 μg/mL biotin-labeled human NGF, incubated at room temperature for 0.5 hours, and then added to an ELISA plate which has been washed with blocking solution. Incubated for 1 hour at room temperature and washed three times. Streptavidin-labeled HRP (Biolegend, 405210) was added, and incubated for 0.5 h and then washed three times. The microtiter plate was added with TMB, and read after the color development was terminated.

The target is the same in experiment [11]. Briefly: ELISA, human NGF coated. The protocol:
The affinity and specificity of humanized antibody were investigated by using human NGF as an antigen (Beijing Yiqiao Shenzhou Technology Co., Ltd., 11050-HNAC). NGF was diluted with […] coating solution (PBS), and each well of 96-well microtiter plate was coated with 50 ng, after washing and blocking, and then added with serially diluted antibodies, and incubated at room temperature for 1 hour. After washing three times, HRP-conjugated donkey anti-human IgG antibody (Biolegend) was added and reacted at room temperature for 1 hour. After washing three times, tetramethylbenzidine (TMB, Biolegend) was added for color development. 1M HC1 was […] used to terminate the color development, and the absorbance values were read at 450 nm with a microplate reader.
This is another data set of the same source.

Experiment [12] has the same target. The experiment in a line: cell-based or functional assay. The source holds these as a separate data set.
Experiment [13] deals with T2, human NT-4. The experiment in a line: ELISA, plate coated with human NT-4 (50 ng per well), OD450. This is another data set of the same source.
In experiment [14] the target is T3, human NT-3. Briefly: ELISA, plate coated with human NT-3 (50 ng per well), OD450. The source holds these as a separate data set.
In experiment [15] the target is T4, human BDNF. Briefly: ELISA, plate coated with human BDNF (50 ng per well), OD450. The source holds these as a separate data set.

Substitutions are numbered along the chain they refer to. Where two headings read alike, the source gives them in different places.

As usually defined, the EC50 is the concentration needed to bring the measured effect to its halfway point. The Kd is a measure of binding affinity in units of concentration. As a reminder, the koff is the first-order rate constant of dissociation. Broadly, the kon is the second-order rate constant of association. The term IC50 denotes the point on the concentration scale where inhibition reaches its midpoint.

T1 sequence (P01138 122-241 limits assumed): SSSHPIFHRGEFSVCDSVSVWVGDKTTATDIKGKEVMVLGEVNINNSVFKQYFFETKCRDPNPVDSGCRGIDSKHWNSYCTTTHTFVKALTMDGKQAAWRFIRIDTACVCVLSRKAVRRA

B1: murine anti-human NGF monoclonal antibody 43E5 (antibody, V domains shown)
VH: QVQLQQSGAELVRPGASVTLSCKASGYTFTDYEMHWVRQTPVHGLEWIGAIDPETGGTAYNQKFKGKATLTADKSSSTAYMELRSLTSEDSAVYYCRRGANLNHYGNDEGSYWGQGTLVTVSA
VL: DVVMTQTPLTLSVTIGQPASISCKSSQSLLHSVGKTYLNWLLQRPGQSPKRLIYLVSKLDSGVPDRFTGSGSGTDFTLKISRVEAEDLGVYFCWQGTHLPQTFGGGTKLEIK
notes: Murine monoclonal antibody purified from hybridoma medium by protein G; also called anti-NGF antibody 43E5
Turning to B1, the EC50 in experiment [1] worked out at 0.082 nM. Moreover, in [2], the Kd is less than 0.001 nM. In [2], the koff was less than 1e-07 s⁻¹. For the same molecule, in [2], the kon was 373000 M⁻¹ s⁻¹. The “IC50, inhibition of NGF-induced proliferation of TF-1 cell” value (from here on “IC50, inhibition … of TF-1 cell”) in experiment [3] is 0.083 nM. In addition, the “IC50, inhibition of NGF-induced proliferation of TrkA/Ba/F3 cells” value (from here on “IC50, inhibition … of TrkA/Ba/F3 cells”) in experiment [4] came to 0.096 nM. The IC50 in experiment [5] was found to be 0.967 nM; in experiment [10] it was 0.767 nM. The binding result in the experiment with human NT-4 [6], with human NT-3 [8] and with human BDNF [9] was “no binding (tested: 66.67 nM)” in each case. Moreover, in [7], the “IC50 (row head prints EC50), inhibition of reporter gene expression in TrkA/NFAT-bla/CHO cells” value was found to be 0.0532 nM.

B2: human-mouse chimeric antibody 43E5-chi (antibody, V domains shown)
VH: B1 VH
VL: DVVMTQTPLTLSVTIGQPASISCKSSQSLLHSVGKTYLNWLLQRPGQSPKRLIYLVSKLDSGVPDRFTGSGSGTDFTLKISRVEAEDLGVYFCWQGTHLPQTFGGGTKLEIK
notes: the constant regions are not specified
For B2, the EC50 in [11] is 0.104 nM. In [12], the “IC50, inhibition … of TF-1 cell” value was 0.255 nM. The binding result with human NT-4 [13], in the experiment with human NT-3 [14] and with human BDNF [15] was “no binding (tested: 66.67 nM)” throughout.

B3: humanized anti-NGF antibody 43E5-05 (antibody, V domains shown)
VH: QVQLVQSGAEVKKPGSSVKVSCKASGYTFTDYEMHWVRQAPGQGLEWMGAIDPETGGTAYNQKFKGRVTITADKSTSTAYMELSSLRSEDTAVYYCRRGANLNHYGNDEGSYWGQGTLVTVSS
VL: DVVMTQSPLSLPVTLGQPASISCKSSQSLLHSVGKTYLNWLQQRPGQSPRRLIYLVSKLDSGVPDRFSGSGSGTDFTLKISRVEAEDVGVYFCWQGTHLPQTFGGGTKVEIK
notes: Humanized antibody expressed in CHO cells
With B3, in experiment [11], the EC50 worked out at 0.214 nM. The “IC50, inhibition … of TF-1 cell” value in experiment [12] amounted to 0.701 nM. Besides, the binding result with human NT-4 [13], with human NT-3 [14] and in the experiment with human BDNF [15] was “no binding (tested: 66.67 nM)” throughout.

B4: humanized anti-NGF antibody 43E5-06 (antibody, V domains shown)
VH: B3 VH with M48I, V68A, I70L
VL: B3 VL
notes: as for B3
B4: the EC50 in experiment [11] came to 0.192 nM. Also, the “IC50, inhibition … of TF-1 cell” value in experiment [12] stood at 0.568 nM. In addition, the binding result in the experiment with human NT-4 [13], in the experiment with human NT-3 [14] and in the experiment with human BDNF [15] was “no binding (tested: 66.67 nM)” in each case.

B5: murine anti-human NGF monoclonal antibody 137H8 (antibody, V domains shown)
VH: QVQLKESGPGLVAPSQSLSITCTVSGFSLTGYAVNWVRQPPGKGLEWLGMIWFDGSTDYNSALKSRLSISKDNSKSQVFLKMNSLQTDDTARYYCARDYYGSSWYFDVWGAGTTVTVSS
VL: DIQMTQTTSSLSASLGDRVTISCRASQDISYYLNWYQQKPDGTVKLLIYYTSRLHSGVPSRFSGSGSGTDYSLTISNLEQEDIATYFCQQGNTLPRTFGGGTKLDIK
notes: Murine monoclonal antibody purified from hybridoma medium by protein G; also called anti-NGF antibody 137H8
For B5, the half-maximal effective concentration (EC50) in experiment [1] was found to be 0.112 nM. For the same molecule, in experiment [2], the Kd amounted to 0.381 nM, the koff was determined as 4.91e-05 s⁻¹ and the kon is 129000 M⁻¹ s⁻¹. Further, the “IC50, inhibition … of TF-1 cell” value in [3] was 0.123 nM. In experiment [4], the “IC50, inhibition … of TrkA/Ba/F3 cells” value amounted to 0.083 nM. In experiment [5], the IC50 worked out at 0.791 nM. The “IC50 (row head prints EC50), inhibition of reporter gene expression in TrkA/NFAT-bla/CHO cells” value in experiment [7] was 0.0859 nM. In [10], the IC50 worked out at 0.738 nM.

B6: murine anti-human NGF monoclonal antibody 138E12 (antibody, V domains shown)
VH: QVQLKESGPGLVAPSQSLSITCTVSGFSLTGYGVNWVRQPPGKGLEWLGMIWFDGSTDYNSALKSRLSISKDNSKSQVFLKMNSLQTDDTARYYCAREGYYYGTTYYFDYWGQGTTLTVSS
VL: B5 VL with Y31N, D105E
notes: Murine monoclonal antibody purified from hybridoma medium by protein G; also called anti-NGF antibody 138E12
As to B6, the EC50 in [1] is 0.1 nM. Further, in experiment [2], the dissociation constant Kd is less than 0.001 nM. The koff in experiment [2] is less than 1e-07 s⁻¹. For the same molecule, the kon in experiment [2] was found to be 634000 M⁻¹ s⁻¹. In addition, in experiment [3], the “IC50, inhibition … of TF-1 cell” value turned out to be 0.077 nM. Besides, in experiment [4], the “IC50, inhibition … of TrkA/Ba/F3 cells” value is 0.098 nM. Besides, the values for the 50% inhibitory concentration (IC50) in experiment [5] and in experiment [10] were 0.865 nM and 0.677 nM, respectively. Moreover, the binding result with human NT-4 [6], in the experiment with human NT-3 [8] and with human BDNF [9] was “no binding (tested: 66.67 nM)” in each case. Moreover, the “IC50 (row head prints EC50), inhibition of reporter gene expression in TrkA/NFAT-bla/CHO cells” value in experiment [7] turned out to be 0.0442 nM.

Source of the values: patent publication US20230109780A1 (XIYUAN ANJIAN MEDICINE SHANGHAI, published 2023).
